Measured values taken from paper PMC6468306 (Nucleic Acids Research, 2019).
Like-named read-outs stand apart in the source and are kept apart here.

Tests used:
ubiquitin (Ub) [1] = target: T1, ubiquitin (Ub) (mouse, UniProt P0CG49 1-76); experiment: pull-down
ubiquitin (Ub) [2] = target: T1, ubiquitin (Ub); experiment: SPR
ubiquitin (Ub) [3] = target: T1, ubiquitin (Ub); experiment: SPR; remark: listed apart in the source
M1-linked diUb (M1-Ub2) = M1-linked diUb (M1-Ub2) (human, UniProt P0CG47); experiment: pull-down
[4] = target: K48-Ub2 synthesized from K48R Ub and D77 Ub (for crystallization) (mouse, UniProt P0CG49, K48R | D77); experiment: crystal structure

binding result (ubiquitin (Ub) [1])	Kd (ubiquitin (Ub) [3])	Binder	also measured
binds		GST-fused CSB C-terminal region (residues 1412-1493) (domain or fragment) LQEASALLPTTEHDDLLVEMRNFIAFQAHTDGQASTREILQEFESKLSASQSCVFRELLRNLCTFHRTSGGEGIWKLKPEYC	
	35.6 µM	GST-fused CSB WHD (residues 1401-1493), wild type (domain or fragment) LPERLESESGHLQEASALLPTTEHDDLLVEMRNFIAFQAHTDGQASTREILQEFESKLSASQSCVFRELLRNLCTFHRTSGGEGIWKLKPEYC	Kd (ubiquitin (Ub) [2]): 36.1 µM; binding result (M1-linked diUb (M1-Ub2)): binds
		CSB WHD (residues 1401-1493) with the Q1413R variant allele, GST cleaved (domain or fragment) LPERLESESGHLREASALLPTTEHDDLLVEMRNFIAFQAHTDGQASTREILQEFESKLSASQSCVFRELLRNLCTFHRTSGGEGIWKLKPEYC	binding result [4]: binds
	51.5 µM	GST-fused CSB WHD, Q1413R variant allele (domain or fragment) LPERLESESGHLREASALLPTTEHDDLLVEMRNFIAFQAHTDGQASTREILQEFESKLSASQSCVFRELLRNLCTFHRTSGGEGIWKLKPEYC	
binds		GST-fused CSB C-terminal region (residues 1386-1493) (domain or fragment) SSSLLAKMRARNHLILPERLESESGHLQEASALLPTTEHDDLLVEMRNFIAFQAHTDGQASTREILQEFESKLSASQSCVFRELLRNLCTFHRTSGGEGIWKLKPEYC	
